For the experiment, the target named is T1, FVIII-155/VWF-031 heterodimer.
T1 construct: The two chains are held together by disulfide bonds between the Fc regions; also called FVIII155/VWF31 heterodimer; FVIII155:VWF31
Briefly: Octet BLI, heterodimer immobilized on protein G sensor, FVIII in solution. The procedure: For the assay, full length VWF was captured by using APS sensor. The binding of FVIIIFc and FVIII to the full-length VWF is shown at the lower left panel. The lack of binding of FVIIIY1680 (a mutant having no affinity for VWF) and FVIII:VWF heterodimer (FVIII155/VWF031) is shown at the lower right panel. […] The binding of the constructs to FVIII was measured.
The same experiment was performed in reverse orientation to determine if the D′D3 portion in the FVIII-VWF heterodimer can interact with other FVIII molecules not covalently attached to D′D3. […] Protein G alone with FVIII was used as control. These binding experiments confirmed that D′D3 in heterodimer can interact with only one FVIII molecule which is covalently attached to it and prevent FVIII from interacting with full length wild type VWF molecules.
Background: Biolayer interferometry detects binding as a change in optical thickness at a sensor tip.

T1 sequence (chain, as listed by the source): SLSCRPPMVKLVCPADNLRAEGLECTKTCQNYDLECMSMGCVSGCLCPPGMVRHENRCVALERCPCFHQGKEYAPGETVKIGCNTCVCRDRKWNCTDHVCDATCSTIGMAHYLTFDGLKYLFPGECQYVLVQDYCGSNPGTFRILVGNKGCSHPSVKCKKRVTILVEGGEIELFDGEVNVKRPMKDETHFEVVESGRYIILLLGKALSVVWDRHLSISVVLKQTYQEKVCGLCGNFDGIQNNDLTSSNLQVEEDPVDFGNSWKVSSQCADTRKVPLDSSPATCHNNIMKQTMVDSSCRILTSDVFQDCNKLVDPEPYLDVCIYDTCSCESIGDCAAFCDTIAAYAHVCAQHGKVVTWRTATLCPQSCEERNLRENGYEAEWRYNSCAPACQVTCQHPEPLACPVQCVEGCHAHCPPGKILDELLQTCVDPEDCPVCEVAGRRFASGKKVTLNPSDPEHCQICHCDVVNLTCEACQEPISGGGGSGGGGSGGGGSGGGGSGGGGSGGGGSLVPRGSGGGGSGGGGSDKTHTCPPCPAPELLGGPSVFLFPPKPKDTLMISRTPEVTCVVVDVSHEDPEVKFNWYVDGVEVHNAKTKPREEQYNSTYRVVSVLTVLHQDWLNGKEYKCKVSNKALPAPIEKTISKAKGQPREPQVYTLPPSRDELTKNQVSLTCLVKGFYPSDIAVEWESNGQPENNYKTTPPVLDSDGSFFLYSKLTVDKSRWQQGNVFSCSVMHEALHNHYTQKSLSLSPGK

B1: rFVIII (other)
chain: ATRRYYLGAVELSWDYMQSDLGELPVDARFPPRVPKSFPFNTSVVYKKTLFVEFTDHLFNIAKPRPPWMGLLGPTIQAEVYDTVVITLKNMASHPVSLHAVGVSYWKASEGAEYDDQTSQREKEDDKVFPGGSHTYVWQVLKENGPMASDPLCLTYSYLSHVDLVKDLNSGLIGALLVCREGSLAKEKTQTLHKFILLFAVFDEGKSWHSETKNSLMQDRDAASARAWPKMHTVNGYVNRSLPGLIGCHRKSVYWHVIGMGTTPEVHSIFLEGHTFLVRNHRQASLEISPITFLTAQTLLMDLGQFLLFCHISSHQHDGMEAYVKVDSCPEEPQLRMKNNEEAEDYDDDLTDSEMDVVRFDDDNSPSFIQIRSVAKKHPKTWVHYIAAEEEDWDYAPLVLAPDDRSYKSQYLNNGPQRIGRKYKKVRFMAYTDETFKTREAIQHESGILGPLLYGEVGDTLLIIFKNQASRPYNIYPHGITDVRPLYSRRLPKGVKHLKDFPILPGEIFKYKWTVTVEDGPTKSDPRCLTRYYSSFVNMERDLASGLIGPLLICYKESVDQRGNQIMSDKRNVILFSVFDENRSWYLTENIQRFLPNPAGVQLEDPEFQASNIMHSINGYVFDSLQLSVCLHEVAYWYILSIGAQTDFLSVFFSGYTFKHKMVYEDTLTLFPFSGETVFMSMENPGLWILGCHNSDFRNRGMTALLKVSSCDKNTGDYYEDSYEDISAYLLSKNNAIEPRSFSQNPPVLKRHQREITRTTLQSDQEEIDYDDTISVEMKKEDFDIYDEDENQSPRSFQKKTRHYFIAAVERLWDYGMSSSPHVLRNRAQSGSVPQFKKVVFQEFTDGSFTQPLYRGELNEHLGLLGPYIRAEVEDNIMVTFRNQASRPYSFYSSLISYEEDQRQGAEPRKNFVKPNETKTYFWKVQHHMAPTKDEFDCKAWAYFSDVDLEKDVHSGLIGPLLVCHTNTLNPAHGRQVTVQEFALFFTIFDETKSWYFTENMERNCRAPCNIQMEDPTFKENYRFHAINGYIMDTLPGLVMAQDQRIRWYLLSMGSNENIHSIHFSGHVFTVRKKEEYKMALYNLYPGVFETVEMLPSKAGIWRVECLIGEHLHAGMSTLFLVYSNKCQTPLGMASGHIRDFQITASGQYGQWAPKLARLHYSGSINAWSTKEPFSWIKVDLLAPMIIHGIKTQGARQKFSSLYISQFIIMYSLDGKKWQTYRGNSTGTLMVFFGNVDSSGIKHNIFNPPIIARYIRLHPTHYSIRSTLRMELMGCDLNSCSMPLGMESKAISDAQITASSYFTNMFATWSPSKARLHLQGRSNAWRPQVNNPKEWLQVDFQKTMKVTGVTTQGVKSLLTSMYVKEFLISSSQDGHQWTLFFQNGKVKVFQGNQDSFTPVVNSLDPPLLTRYLRIHPQSWVHQIALRMEVLGCEAQDLY
notes: also called wild type FVIII
Take B1: the binding result is “no binding”.
